Experimental data taken from patent publication US20190248902A1 (published 2019).

Experiments:
[1] = molecular target: T1, recombinant, soluble human ASGR-1 (human, UniProt P07306 62-291); assay: Octet BLI dissociation, pH 7.4 minus calcium
T1 construct: biotinylated in the binning assay; also called soluble huASGR-1; Soluble ASGR-1 (Amgen)
T1 sequence: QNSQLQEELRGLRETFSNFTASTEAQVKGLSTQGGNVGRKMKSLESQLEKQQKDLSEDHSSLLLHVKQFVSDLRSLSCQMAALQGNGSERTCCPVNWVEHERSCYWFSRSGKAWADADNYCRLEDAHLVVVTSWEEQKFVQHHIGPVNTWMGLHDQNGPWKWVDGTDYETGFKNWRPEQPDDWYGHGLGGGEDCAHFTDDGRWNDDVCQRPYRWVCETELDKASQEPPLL
Method: (§1) The relative dissociation of ASGR-1 from antibodies was measured using a label-free assay on an OctetHTX instrument (Fortebio). Antibody samples were captured on anti-HuFc kinetic biosensors (ForteBio cat #18-5064) at 5 ug/mL in assay buffer (10 mM Tris, 0.1% Triton, 150 mM NaCl, 1 mg/mL BSA, 1 mM CaCl2, pH7.4) for three minutes. A one minute baseline stabilization step was performed in assay buffer. Soluble ASGR-1 (Amgen) at 6 ug/ml in assay buffer was added and association to the antibodies was monitored for two minutes. Subsequent dissociation of ASGR-1 from the antibodies was performed by incubating the ASGR-1-mAb complexes for 10 minutes under each of the following conditions:
(§2) The binding signal at the end of the 2 minute association phase for each dissociation experiment was set to 100% and used to represent the maximal level of ASGR-1 binding. After 1 minute of dissociation, the percentage of ASGR-1 remaining bound was calculated. The lower the percent remaining at a given time point indicates increased levels of dissociation in response to the test conditions (ie. different pH and/or calcium concentrations). The change in the percentage of ASGR-1 remaining bound in response to each test condition relative to the percent remaining in the control conditions (ie. pH 7.4+calcium) was determined. Cut-offs for an antibody to be categorized as being sensitive to a particular condition were set to >10% (ie. if >10% of the ASGR-1 dissociates from the antibody under a particular test condition compared to control condition, it was deemed sensitive to that condition). The analysis was done using the 1 minute dissociation time point (except for mAb 149A1 which was binned based on the 4 minute dissociation time point). Using this analysis, the ASGR-1-binding, receptor-ligand blocking antibodies were separated into groups according to their dissociation profiles in response to pH and calcium (Table 7.3). Antibodies belonging to each category were observed.

[2] = molecular target: T1, recombinant, soluble human ASGR-1; assay: Octet BLI dissociation, pH 5.6 plus calcium
Method: as §1, §2

[3] = molecular target: T1, recombinant, soluble human ASGR-1; assay: Octet BLI dissociation, pH 5.6 minus calcium
Method: as §1, §2

B1: 72B4 (antibody, V domains shown)
VH: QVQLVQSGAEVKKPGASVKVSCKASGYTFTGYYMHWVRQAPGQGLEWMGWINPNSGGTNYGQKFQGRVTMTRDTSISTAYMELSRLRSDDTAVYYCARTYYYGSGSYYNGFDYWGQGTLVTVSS
VL: SYELTQPPSVSVSPGQTASITCSGDKLGDKYAWWYQQRPGQSPVLVIYEDRKRPSGIPERFSGSNSGNTATLTISGTQAMDEADYYCQAWDNSTVVFGGGTKLTVL
notes: hybridoma mAb
% Change Compared to pH 7.4 + Calcium [1]: 32% | % Change Compared to pH 7.4 + Calcium [2]: 26% | % Change Compared to pH 7.4 + Calcium [3]: 43%

B2: 50G9 (antibody, V domains shown)
VH: QVQLVESGGGVVQPGRSLRLSCAASGFIFSSYGMHWVRQAPGKGLEWVAVISQDGIIRYYADSVKGRFTISRDNSKNTLYLQMNSLRAEDTAVYYCARDVKQWLVRTYGMDVWGQGTTVTVSS
VL: SYELTQPPSVSVSPGQTASITCSGDKLGDKYACWYQQKPGQSPVLVIYQDSKRPSGIPERFSGSNSGNTATLTISGTQARDEAEYYCQARNSRRGVFGGGTRLTVL
notes: hybridoma mAb
% Change Compared to pH 7.4 + Calcium [1]: 37% | % Change Compared to pH 7.4 + Calcium [2]: 62% | % Change Compared to pH 7.4 + Calcium [3]: 44%

B3: 52H1 (antibody, V domains shown)
VH: QVQLVESGGGVVQPGRSLRLSCAASGFTFSGYGMHWVRQAPGKGLEWVAVIWYDGSNKYYADSVKGRFTISRDNSKNTLYLQMNSLRAEDTAVYYCARDRVYCSSSSCSYYYYYYGMDVWGQGTTVTVSS
VL: SYELTQPPSVFVSPGQTASITSSGDKLGDKYVSWYQQKPGQSPVLVIYQDRKRPSGIPERFSGSNSGNTATLTISGTQAMDEADYYCQAWDNSTVVFGGGTKLTVL
notes: hybridoma mAb
% Change Compared to pH 7.4 + Calcium [1]: 5% | % Change Compared to pH 7.4 + Calcium [2]: -1% | % Change Compared to pH 7.4 + Calcium [3]: 10%

B4: 58G11 (antibody, V domains shown)
VH: EVQLVESGGGLVQPGGSLRLSCAASGFTFSSYSMNWVRQAPGKGLEWISYISTSSSTIFYADSVKGRFTISRDSAKNSLYLQMNSLRDEDTAVYYCARGDTAMVLYYYGMDVWGQGTTVTVSS
VL: SYELTQPPSVSVSPGQTASITCSGDKLGDKYASWYQQKPGQSPVLVIYQDNKRPSGIPERFSGSNSGNTATLTISGTQAMDEADYYCQAWNNNTVMFGGGTKLTVL
notes: hybridoma mAb
% Change Compared to pH 7.4 + Calcium [1]: 38% | % Change Compared to pH 7.4 + Calcium [2]: 12% | % Change Compared to pH 7.4 + Calcium [3]: 51%

B5: 59F2 (antibody, V domains shown)
VH: EVQLVESGGGLVQPGGSLRLSCGASGFTFSSYSMNWVRQAPGKGLEWVSYISGSSNIIYYTDSVKGRFTISRDNAKNSLYLQMNSLRDEDTAVYYCARADTPMVLYFYGMDVWGQGTTVTVSS
VL: SYELTQPPSVSVSPGQTASITCSGDKLGDKYASWYQQRPGQSPVLVIYQDNKRPSGIPERFSGSNSGNTATLTISGTQAMDEADYYCQAWDNNTVVFGGGTKLTVL
notes: hybridoma mAb
% Change Compared to pH 7.4 + Calcium [1]: 48% | % Change Compared to pH 7.4 + Calcium [2]: 52% | % Change Compared to pH 7.4 + Calcium [3]: 74%

B6: 60D2 (antibody, V domains shown)
VH: EVQLVESGGGLVQPGGSLRLSCGASGFTFSSYSMNWVRQAPGKGLEWVSYISESSNIIYYTDSVKGRFTISRDNAMNSLYLQMNSLRDEDTAVYYCARADTPMVLYFYGMDVWGQGTTVTVSS
VL: SYELTQPPSVSVSPGQTASITCSGNKLGDKYASWYQQRPGQSPVLVIYQDNKRPSGIPERFSGSNSGNTATLTISGTQTMDEADYYCQAWDNNTVVFGGGTKLTVL
notes: hybridoma mAb
% Change Compared to pH 7.4 + Calcium [1]: 20% | % Change Compared to pH 7.4 + Calcium [2]: 42% | % Change Compared to pH 7.4 + Calcium [3]: 49%

B7: 60E8 (antibody, V domains shown)
VH: QVQLQESGPGLVRPSATLSLTCTVSGGSISRSSYYWGWIRQPPGKGLEWIGSIYYSGSASYNPSLKSRVTISVDTSENQFSLRLSSVTAADTAVYYCARLDSGWSFDYWGQGTLVTVSS
VL: DIQMTQSPSSLSASVGDRVTFTCRASQGIRNDLGWFQQKPGKAPKRLIYAASSLQSGVPSRFSGSGSGTEFTLTISSLQPEDFATYYCLQHSSYPLTFGGGTKVEIK
notes: hybridoma mAb
% Change Compared to pH 7.4 + Calcium [1]: 3% | % Change Compared to pH 7.4 + Calcium [2]: 11% | % Change Compared to pH 7.4 + Calcium [3]: 18%
